These results are taken from PMC10237660.

For the assay, the target named is C-terminal polyP binding domain of the E. coli exopolyphosphatase (EcPPXc) (E. coli strain K12). Briefly: SEC; analytical SE-UPLC, BEH200 4.6 x 300 mm column (Waters), running buffer 10 mM NaH2PO4, 400 mM (NH4)2SO4, pH 6.2; retention time compared with 158 kDa and 44 kDa standards.

What is called stoichiometry N is the number of molecules, sites or subunits per partner or assembly. “C-terminal polyP binding domain of the E. coli exopolyphosphatase (EcPPXc) (domain or fragment)” returned a stoichiometry N of 2.
